In US20230303690A1 (published 2023):

B1: sdAb fusion 25-2015-3 (Fc fusion, not shown: a dimerising Fc or GST)
chain: QLQLVESGGGLVQAGGSLRLSCAASGSIESFSFMGWYRQAPGKQRELVAGFTGAASLSFSTYTDAVKGRFTISRDNAKNTVYLQMNSLKPEDTAVYFCNVDPWSQSWPGRYWGQGTQVTVSSGGGGSGGGGSGGGGSQLQLVESGGGLAQTGGSLRLSCAAAGFTFDDTATGWFRQAPGKNREGVACISSSDGRIHYIDSAKGRFTISKDNAKKTVYLQMDSLKPEDTAVYYCAAARKGSTDCQGAIWGSWGQGTQVIVSSEPKSCDKTHTCPPCPAPELLG
B2: sdAb No. 2015 (VHH, part only)
VHH: QLQLVESGGGLAQTGGSLRLSCAAAGFTFDDTATGWFRQAPGKNREGVACISSSDGRIHYIDSAKGRFTISKDNAKKTVYLQMDSLKPEDTAVYYCAAARKGSTDCQGAIWGSWGQGTQVIVSS
modifications: possible Fc not stated
B3: sdAb fusion 25-27-2 (Fc fusion, not shown: a dimerising Fc or GST)
chain: QLQLVESGGGLVQAGGSLRLSCAASGSIESFSFMGWYRQAPGKQRELVAGFTGAASLSFSTYTDAVKGRFTISRDNAKNTVYLQMNSLKPEDTAVYFCNVDPWSQSWPGRYWGQGTQVTVSSGGGGSGGGGSQVQLVESGGGLVQPGGSLRLSCAASGFTLDYYAIGWFRQAPGKEREGVSCIRSSDGSTYYADSVKGRFTISSDNTKNTVYLQMNSLKPEDTAVYYCATDRYSDCRGPYENWGQGTQVTVSSEPKSCDKTHTCPPCPAPELLG
B4: sdAb No. 2018 (VHH, part only)
VHH: QVQLVESGGGLVQPGGSLKLSCTASGFTLDYYAIAWFRQAPGKEREAVSCISSSDGSTRYADSVKGRFTISRDNAKNTVYLQMNSLKPEDTAVYYCAADPYGDCRGPYDYWGQGTQVTVSS
modifications: possible Fc not stated
B5: sdAb fusion 25-27-3 (Fc fusion, not shown: a dimerising Fc or GST)
chain: QLQLVESGGGLVQAGGSLRLSCAASGSIESFSFMGWYRQAPGKQRELVAGFTGAASLSFSTYTDAVKGRFTISRDNAKNTVYLQMNSLKPEDTAVYFCNVDPWSQSWPGRYWGQGTQVTVSSGGGGSGGGGSGGGGSQVQLVESGGGLVQPGGSLRLSCAASGFTLDYYAIGWFRQAPGKEREGVSCIRSSDGSTYYADSVKGRFTISSDNTKNTVYLQMNSLKPEDTAVYYCATDRYSDCRGPYENWGQGTQVTVSSEPKSCDKTHTCPPCPAPELLG
B6: sdAb fusion 25-17-1 (Fc fusion, not shown: a dimerising Fc or GST)
chain: QLQLVESGGGLVQAGGSLRLSCAASGSIESFSFMGWYRQAPGKQRELVAGFTGAASLSFSTYTDAVKGRFTISRDNAKNTVYLQMNSLKPEDTAVYFCNVDPWSQSWPGRYWGQGTQVTVSSGGGGSQLQLVESGGGLVQPGGSLRLSCAASGLTLDGYAIGWFRQAPGKEREGLACISGSDGSTHYLDSVKGRFTISRDNGKNTMALQMNSLQFGDTAIYYCAARRGSCSGSWTYWGQGTQVTVSS
B7: sdAb fusion 25-2015-2 (Fc fusion, not shown: a dimerising Fc or GST)
chain: QLQLVESGGGLVQAGGSLRLSCAASGSIESFSFMGWYRQAPGKQRELVAGFTGAASLSFSTYTDAVKGRFTISRDNAKNTVYLQMNSLKPEDTAVYFCNVDPWSQSWPGRYWGQGTQVTVSSGGGGSGGGGSQLQLVESGGGLAQTGGSLRLSCAAAGFTFDDTATGWFRQAPGKNREGVACISSSDGRIHYIDSAKGRFTISKDNAKKTVYLQMDSLKPEDTAVYYCAAARKGSTDCQGAIWGSWGQGTQVIVSSEPKSCDKTHTCPPCPAPELLG
B8: sdAb fusion 25-17-2 (Fc fusion, not shown: a dimerising Fc or GST)
chain: QLQLVESGGGLVQAGGSLRLSCAASGSIESFSFMGWYRQAPGKQRELVAGFTGAASLSFSTYTDAVKGRFTISRDNAKNTVYLQMNSLKPEDTAVYFCNVDPWSQSWPGRYWGQGTQVTVSSGGGGSGGGGSQLQLVESGGGLVQPGGSLRLSCAASGLTLDGYAIGWFRQAPGKEREGLACISGSDGSTHYLDSVKGRFTISRDNGKNTMALQMNSLQFGDTAIYYCAARRGSCSGSWTYWGQGTQVTVSSEPKSCDKTHTCPPCPAPELLG
B9: sdAb fusion 25-17-3 (Fc fusion, not shown: a dimerising Fc or GST)
chain: QLQLVESGGGLVQAGGSLRLSCAASGSIESFSFMGWYRQAPGKQRELVAGFTGAASLSFSTYTDAVKGRFTISRDNAKNTVYLQMNSLKPEDTAVYFCNVDPWSQSWPGRYWGQGTQVTVSSGGGGSGGGGSGGGGSQLQLVESGGGLVQPGGSLRLSCAASGLTLDGYAIGWFRQAPGKEREGLACISGSDGSTHYLDSVKGRFTISRDNGKNTMALQMNSLQFGDTAIYYCAARRGSCSGSWTYWGQGTQVTVSSEPKSCDKTHTCPPCPAPELLG
B10: sdAb No. 2093 (VHH, part only)
VHH: QVQLVESGGGLVQPGGSLTLSCVASGFTLDYYTVGWFRQVPGKEREGISCISSSDGSTRYADSVKGRFTISRDNAKNTMSLQMNSLKPEDTAVYYCATPGIHGTSCNTSWKYYGQGTQVTVSS
modifications: possible Fc not stated
B11: sdAb fusion 25-2015-1 (Fc fusion, not shown: a dimerising Fc or GST)
chain: QLQLVESGGGLVQAGGSLRLSCAASGSIESFSFMGWYRQAPGKQRELVAGFTGAASLSFSTYTDAVKGRFTISRDNAKNTVYLQMNSLKPEDTAVYFCNVDPWSQSWPGRYWGQGTQVTVSSGGGGSQLQLVESGGGLAQTGGSLRLSCAAAGFTFDDTATGWFRQAPGKNREGVACISSSDGRIHYIDSAKGRFTISKDNAKKTVYLQMDSLKPEDTAVYYCAAARKGSTDCQGAIWGSWGQGTQVIVSSEPKSCDKTHTCPPCPAPELLG

Each binder was assayed against human LAG3 expressed on cells (human) (UniProt P18627) (assay: cell-based or functional assay).
human LAG3 expressed on cells (human), sequence (P18627 23-525): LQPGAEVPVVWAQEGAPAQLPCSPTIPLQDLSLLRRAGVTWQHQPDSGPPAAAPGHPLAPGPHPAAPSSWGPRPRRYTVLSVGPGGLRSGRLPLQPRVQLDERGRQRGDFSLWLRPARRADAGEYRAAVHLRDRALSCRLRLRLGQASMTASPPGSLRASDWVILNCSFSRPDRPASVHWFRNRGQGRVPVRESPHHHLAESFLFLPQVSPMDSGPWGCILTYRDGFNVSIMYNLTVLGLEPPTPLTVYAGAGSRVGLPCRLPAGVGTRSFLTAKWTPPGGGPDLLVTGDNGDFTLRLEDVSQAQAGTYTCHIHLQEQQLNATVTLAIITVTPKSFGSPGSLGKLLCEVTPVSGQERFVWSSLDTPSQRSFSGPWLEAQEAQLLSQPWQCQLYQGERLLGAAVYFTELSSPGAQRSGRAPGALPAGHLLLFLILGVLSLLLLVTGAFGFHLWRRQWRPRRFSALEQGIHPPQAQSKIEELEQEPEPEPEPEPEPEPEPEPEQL

Efficacy (Normalized to BMS)	IL-2, % of BMS, at 0.001016105 ug/mL	IL-2, % of BMS, at 0.003048316 ug/mL	IL-2, % of BMS, at 0.009144947 ug/mL	IL-2, % of BMS, at 0.027434842 ug/mL	IL-2, % of BMS, at 0.082304527 ug/mL	IL-2, % of BMS, at 0.24691358 ug/mL	IL-2, % of BMS, at 0.740740741 ug/mL	IL-2, % of BMS, at 2.222222222 ug/mL	IL-2, % of BMS, at 6.666666667 ug/mL	Binder
113%	0%	10.7%	7.28%	30.2%	10.3%	35.4%	59.3%	96.8%	112%	B1
106%	0.0147%	3.76%	5.39%	11.1%	6.04%	17.2%	62%	114%	123%	B3
–	0.0673%	-5.25%	2.64%	-8.9%	-0.289%	3.53%	17%	58.4%	120%	B5
106%	0.0133%	4.1%	-0.836%	-2.73%	-5.85%	6.88%	34%	82.7%	89.2%	B6
101%	0.000334%	-15.6%	-12.5%	20.8%	-0.802%	20.9%	59.4%	83.2%	88.3%	B7
102%	-0.00048%	-2.52%	-0.621%	12%	-7.68%	-2.21%	16.4%	77.7%	85.1%	B8
102%	0.000639%	5.71%	7.44%	8.91%	11.7%	12.1%	28.9%	62.8%	93.2%	B9
114%	0.000292%	10.8%	7.32%	30.4%	10.4%	35.6%	59.7%	97.5%	112%	B11

Same assay, conditions: not given

IL-2, % of BMS, at 20 ug/mL	Jurkat T-hLAG3 Assay EC50	IL-2, % of BMS, at 0.005080526 ug/mL	IL-2, % of BMS, at 0.015241579 ug/mL	IL-2, % of BMS, at 0.045724737 ug/mL	IL-2, % of BMS, at 0.137174211 ug/mL	IL-2, % of BMS, at 0.411522634 ug/mL	IL-2, % of BMS, at 1.234567901 ug/mL	IL-2, % of BMS, at 3.703703704 ug/mL	IL-2, % of BMS, at 11.11111111 ug/mL	Binder
116%	8.01 nM	–	–	–	–	–	–	–	–	B1
–	–	0.0179%	1.06%	0.925%	1.92%	1.8%	10.6%	19.1%	33.6%	B2
124%	–	–	–	–	–	–	–	–	–	B3
–	–	0.0212%	5.32%	2.83%	9.41%	15.3%	22.8%	28.6%	34.6%	B4
168%	–	–	–	–	–	–	–	–	–	B5
110%	10.9 nM	–	–	–	–	–	–	–	–	B6
96.6%	5.13 nM	–	–	–	–	–	–	–	–	B7
111%	14 nM	–	–	–	–	–	–	–	–	B8
103%	18.4 nM	–	–	–	–	–	–	–	–	B9
–	–	-0.00098%	-3.19%	5.73%	0.267%	1.04%	4%	14.9%	20%	B10
117%	8.01 nM	–	–	–	–	–	–	–	–	B11

Same assay, conditions: not given

IL-2, % of BMS, at 33.33333333 ug/mL	IL-2, % of BMS, at 100 ug/mL	Binder
39.8%	46.6%	B2
36.9%	37%	B4
14.4%	22.2%	B10
